According to paper PMC3553496:

Legend:
Assay in all cases: peptide or protein array
[1] = molecular target: FH1/FH2 domain–containing protein 3 peptide (18-mer) (human)
[2] = molecular target: LIM homology domain– and calponin homology domain–containing protein 1 peptide (18-mer) (human)
[3] = molecular target: Drebrin peptide (18-mer) (human)
[4] = molecular target: Leucine-rich repeat flightless-interacting protein 2 peptide (18-mer) (human)
[5] = molecular target: LIM domain only protein 7 peptide (18-mer) (human)
[6] = molecular target: Myosin-14 peptide (18-mer) (human)

GST-tagged ARHGAP10L SH3 domain (domain or fragment)
relative binding strength (% of the strongest interaction of this SH3 domain) [1]: 53% | relative binding strength (% of the strongest interaction of this SH3 domain) [2]: 11% | relative binding strength (% of the strongest interaction of this SH3 domain) [3]: 68% | relative binding strength (% of the strongest interaction of this SH3 domain) [4]: 65% | relative binding strength (% of the strongest interaction of this SH3 domain) [5]: 12% | relative binding strength (% of the strongest interaction of this SH3 domain) [6]: 100%
